Tested on: peptide library, one residue held at a place counted from the S/T acceptor
Assay: relative phosphorylation of the sub-library (ratio to the mean residue at this position); human; higher = residue favoured
Summary of the method: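 Purified recombinant kinases, either human or orthologue constructs, were incubated in 384-well plates with biotinylated degenerate peptide sub-libraries. Each sub-library fixed one residue at one position around a central Ser/Thr. Peptides at 50 μM and 50 μM ATP spiked with γ-32P-ATP were used for 90 min under kinase-specific conditions, and spots on streptavidin membranes were phosphorimaged and quantified by densitometry. Relative sub-library phosphorylation is expressed as a ratio to the mean residue at that position.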

MAP4K5, construct: Full length, sequence (Q9Y4K4 whole entry, looked up): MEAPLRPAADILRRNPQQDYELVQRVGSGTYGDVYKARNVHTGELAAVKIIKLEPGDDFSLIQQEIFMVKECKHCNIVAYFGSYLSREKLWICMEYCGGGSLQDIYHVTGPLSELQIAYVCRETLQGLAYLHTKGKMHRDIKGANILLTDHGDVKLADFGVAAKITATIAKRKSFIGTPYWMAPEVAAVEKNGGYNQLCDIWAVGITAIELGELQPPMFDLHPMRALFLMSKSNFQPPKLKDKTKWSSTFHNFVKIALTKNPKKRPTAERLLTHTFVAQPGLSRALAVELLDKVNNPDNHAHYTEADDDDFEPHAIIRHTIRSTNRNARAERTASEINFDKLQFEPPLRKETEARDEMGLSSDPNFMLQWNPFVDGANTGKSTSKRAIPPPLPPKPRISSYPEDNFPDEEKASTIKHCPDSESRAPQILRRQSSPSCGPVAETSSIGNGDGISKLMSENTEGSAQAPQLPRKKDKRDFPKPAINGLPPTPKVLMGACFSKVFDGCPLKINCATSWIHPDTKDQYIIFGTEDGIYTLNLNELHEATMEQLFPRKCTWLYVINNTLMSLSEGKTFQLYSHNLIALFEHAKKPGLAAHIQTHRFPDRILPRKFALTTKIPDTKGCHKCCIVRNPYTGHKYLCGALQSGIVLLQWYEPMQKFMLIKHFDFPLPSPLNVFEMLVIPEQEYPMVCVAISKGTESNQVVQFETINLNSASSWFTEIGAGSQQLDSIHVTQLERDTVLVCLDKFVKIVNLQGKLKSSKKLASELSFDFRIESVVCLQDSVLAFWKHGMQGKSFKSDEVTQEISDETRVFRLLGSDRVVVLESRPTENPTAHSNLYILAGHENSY
MAP4K3, construct: aa1-380, sequence (Q8IVH8 1-380, looked up): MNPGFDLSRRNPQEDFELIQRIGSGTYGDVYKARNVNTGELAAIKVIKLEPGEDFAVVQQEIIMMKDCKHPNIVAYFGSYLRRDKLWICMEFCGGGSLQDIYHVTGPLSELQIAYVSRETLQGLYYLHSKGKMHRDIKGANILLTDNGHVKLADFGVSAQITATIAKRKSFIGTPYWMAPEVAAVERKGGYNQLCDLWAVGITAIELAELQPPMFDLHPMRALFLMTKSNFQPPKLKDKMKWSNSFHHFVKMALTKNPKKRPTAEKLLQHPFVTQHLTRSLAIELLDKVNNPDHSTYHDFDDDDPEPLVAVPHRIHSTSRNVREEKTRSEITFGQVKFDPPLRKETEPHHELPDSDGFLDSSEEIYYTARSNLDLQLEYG

MAP4K3, construct: aa1-380 (from UniProt Q8IVH8)
relative phosphorylation
Details | at +1 | at +2 | at +3 | at +4 | at -1 | at -2 | at -3 | at -4 | at -5
A fixed | 0.464 | 0.792 | 0.671 | 0.932 | 0.978 | 1.09 | 0.815 | 0.964 | 1.07
D fixed | 0.179 | 0.667 | 0.375 | 0.655 | 0.611 | 0.522 | 0.553 | 0.851 | 0.835
E fixed | 0.151 | 0.643 | 0.296 | 0.592 | 0.437 | 0.406 | 0.569 | 0.894 | 0.687
F fixed | 1.09 | 0.464 | 0.536 | 0.71 | 0.692 | 1.16 | 0.778 | 0.991 | 0.922
G fixed | 0.613 | 0.996 | 0.846 | 1.12 | 1.93 | 1.43 | 1.51 | 1.39 | 1.32
H fixed | 0.606 | 1.12 | 1.04 | 1.07 | 1.21 | 1.34 | 1.13 | 1.04 | 1.07
I fixed | 1.8 | 0.357 | 0.432 | 0.733 | 0.279 | 0.676 | 0.556 | 0.696 | 0.772
K fixed | 0.642 | 2.68 | 2.32 | 1.93 | 1.66 | 0.987 | 2.27 | 1.34 | 1.49
L fixed | 3.72 | 0.602 | 0.549 | 0.722 | 0.859 | 0.655 | 0.602 | 0.748 | 0.637
M fixed | 2.73 | 0.664 | 0.51 | 0.9 | 1.05 | 0.687 | 0.651 | 0.869 | 0.862
N fixed | 0.632 | 1.11 | 0.868 | 1.05 | 1.54 | 1.16 | 1.07 | 0.867 | 1.01
P fixed | 0.418 | 1.16 | 0.942 | 1.11 | 0.741 | 0.854 | 1.08 | 1.13 | 1.11
Q fixed | 0.655 | 0.952 | 0.952 | 1.17 | 0.998 | 0.785 | 0.843 | 0.928 | 0.864
R fixed | 0.67 | 3.22 | 4.5 | 1.67 | 1.92 | 1.5 | 2.13 | 1.48 | 1.45
V fixed | 0.672 | 0.428 | 0.497 | 0.743 | 0.362 | 0.815 | 0.529 | 0.695 | 0.833
W fixed | 1.14 | 0.528 | 0.893 | 0.999 | 0.668 | 1.3 | 0.935 | 1.16 | 1.07
Y fixed | 0.821 | 0.615 | 0.772 | 0.885 | 1.06 | 1.63 | 0.978 | 0.968 | 1.01
pThr fixed | 0.928 | 0.749 | 0.717 | 0.614 | 0.437 | 0.985 | 1.11 | 1.13 | 1.32
pTyr fixed | 0.355 | 0.389 | 0.637 | 0.486 | 0.516 | 0.763 | 1.04 | 0.852 | 1.16

MAP4K5, construct: Full length (from UniProt Q9Y4K4)
relative phosphorylation
Details | at +1 | at +2 | at +3 | at +4 | at -1 | at -2 | at -3 | at -4 | at -5
A fixed | 0.585 | 0.999 | 0.641 | 0.969 | 0.963 | 1.36 | 0.963 | 1.03 | 1.3
D fixed | 0.17 | 0.718 | 0.375 | 0.726 | 0.63 | 0.491 | 0.59 | 0.756 | 0.739
E fixed | 0.173 | 0.581 | 0.319 | 0.67 | 0.455 | 0.368 | 0.553 | 0.812 | 0.721
F fixed | 1.1 | 0.535 | 0.704 | 0.783 | 0.704 | 1.07 | 0.744 | 0.995 | 0.974
G fixed | 0.585 | 1.04 | 0.891 | 1.21 | 1.79 | 1.43 | 1.37 | 1.33 | 1.42
H fixed | 0.605 | 1.13 | 1.23 | 1.14 | 1.3 | 1.41 | 1.21 | 1.09 | 1.02
I fixed | 1.89 | 0.373 | 0.468 | 0.709 | 0.294 | 0.645 | 0.528 | 0.684 | 0.66
K fixed | 0.599 | 2.46 | 1.81 | 1.8 | 1.43 | 0.905 | 2.01 | 1.25 | 1.3
L fixed | 3.52 | 0.673 | 0.672 | 0.796 | 0.816 | 0.636 | 0.628 | 0.76 | 0.607
M fixed | 2.8 | 0.797 | 0.688 | 0.88 | 1 | 0.773 | 0.697 | 0.853 | 0.819
N fixed | 0.506 | 1.02 | 0.973 | 1.04 | 1.43 | 1.18 | 1.13 | 0.933 | 0.943
P fixed | 0.32 | 1.13 | 1.14 | 1.12 | 1.2 | 1.07 | 0.999 | 1.24 | 1.37
Q fixed | 0.558 | 1.12 | 0.907 | 1.1 | 1.01 | 0.806 | 1.1 | 0.96 | 0.877
R fixed | 0.697 | 2.53 | 3.55 | 1.49 | 1.65 | 1.36 | 1.77 | 1.25 | 1.25
V fixed | 0.78 | 0.513 | 0.609 | 0.718 | 0.362 | 0.77 | 0.591 | 0.78 | 0.906
W fixed | 1.28 | 0.647 | 1.08 | 0.951 | 0.778 | 1.3 | 1.13 | 1.23 | 1.07
Y fixed | 0.832 | 0.738 | 0.94 | 0.9 | 1.19 | 1.43 | 0.989 | 1.05 | 1.02
pThr fixed | 0.61 | 0.623 | 0.7 | 0.522 | 0.433 | 0.776 | 0.874 | 0.936 | 1.02
pTyr fixed | 0.326 | 0.397 | 0.716 | 0.56 | 0.602 | 0.695 | 0.91 | 0.881 | 1.1
